Patent publication US20220389118A1 (Chugai, published 2022)

T1: human FcγRIIa type R (allotype R131) extracellular domain with C-terminal His tag (human, UniProt P12318 34-217)
T1 construct: extracellular domain; also called FcγRIIaR; FcγRIIa R type; not shown: His tag at the C terminus
T1 sequence (looked up): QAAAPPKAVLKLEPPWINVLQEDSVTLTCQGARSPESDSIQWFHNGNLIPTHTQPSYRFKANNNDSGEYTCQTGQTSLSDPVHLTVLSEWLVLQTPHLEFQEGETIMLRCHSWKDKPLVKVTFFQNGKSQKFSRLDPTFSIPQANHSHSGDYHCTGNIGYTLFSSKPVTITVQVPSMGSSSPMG

T2: human FcγRIIb extracellular domain with C-terminal His tag (human, UniProt P31994 43-217)
T2 construct: extracellular domain; also called FcgRIIb
T2 sequence (looked up): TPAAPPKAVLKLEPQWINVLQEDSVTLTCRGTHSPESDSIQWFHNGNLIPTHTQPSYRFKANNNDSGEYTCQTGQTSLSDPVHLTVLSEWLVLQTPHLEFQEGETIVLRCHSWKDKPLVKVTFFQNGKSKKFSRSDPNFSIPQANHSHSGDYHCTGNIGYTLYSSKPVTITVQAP

T3: human FcγRIIa type R extracellular domain with C-terminal His tag (human, UniProt P12318 34-217)
T3 construct: extracellular domain; also called FcγRIIaR; FcgRIIaR
T3 sequence (looked up): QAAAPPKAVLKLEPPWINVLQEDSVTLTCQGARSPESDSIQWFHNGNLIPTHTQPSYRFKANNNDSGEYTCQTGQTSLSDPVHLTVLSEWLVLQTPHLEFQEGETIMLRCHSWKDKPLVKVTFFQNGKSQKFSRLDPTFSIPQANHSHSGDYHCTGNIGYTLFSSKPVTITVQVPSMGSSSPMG


Assays:
[1] = target: T4, human FcγRIIIa type V (allotype V158) extracellular domain with C-terminal His tag (human, UniProt P08637 17-208); test: SPR (Biacore), antibody captured, FcγR analyte
T4 construct: extracellular domain; also called FcγRIIIaV; FcγRIIIa V type; not shown: His tag at the C terminus

[2] = target: T1, human FcγRIIa type R (allotype R131) …; test: SPR (Biacore), antibody captured, FcγR analyte
[3] = target: T2, human FcγRIIb extracellular domain with …; test: SPR (Biacore), antibody captured, FcγR as analyte
[4] = target: T3, human FcγRIIa type R extracellular …; test: SPR (Biacore), antibody captured, FcγR as analyte

T4 sequence (P08637 17-208 F176V): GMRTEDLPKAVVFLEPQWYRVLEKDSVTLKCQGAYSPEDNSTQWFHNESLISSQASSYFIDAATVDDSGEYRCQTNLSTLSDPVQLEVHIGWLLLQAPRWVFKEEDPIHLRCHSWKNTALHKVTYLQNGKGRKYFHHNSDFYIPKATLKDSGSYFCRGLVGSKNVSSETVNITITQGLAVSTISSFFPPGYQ

Kd [1]	Kd [2]	KD(IIb) of parent polypeptide/KD(IIb) of altered polypeptide [3]	Kd [4]	Kd [3]	Binder
56 µM	2.6 µM				IL6R-BP183/IL6R-L (antibody, human IgG1, kappa, copies: 2 + 2) heavy: QVQLQESGPGLVKPSETLSLTCAVSGHSISHDHAWSWVRQPPGEGLEWIGFISYSGITNYNPSLQGRVTISRDNSKNTLYLQMNSLRAEDTAVYYCARSLARTTAMDYWGEGTLVTVSSASTKGPSVFPLAPSSKSTSGGTAALGCLVKDYFPEPVTVSWNSGALTSGVHTFPAVLQSSGLYSLSSVVTVPSSSLGTQTYICNVNHKPSNTKVDKKVEPKSCDKTHTCPPCPAPDYLGGDSVFLFPPKPKDTLMISRTPEVTCVVVDVSHEDGEVKFNWYVDGVEVHNAKTKPREEQYNSTYRVVSVLTVLHQDWLNGKEYKCKVSNAALPKPIEKTISKAKGQPREPQVYTLPPSRDELTKNQVSLTCLVKGFYPSDIAVEWESNGQPENNYKTTPPVLDSDGSFFLYSKLTVDKSRWQQGNVFSCSVMHEALHNHYTQESLSLSP light: not shown
	4.5 µM				IL6R-BP204/IL6R-L (antibody, human IgG1, kappa, copies: 2 + 2) heavy: QVQLQESGPGLVKPSETLSLTCAVSGHSISHDHAWSWVRQPPGEGLEWIGFISYSGITNYNPSLQGRVTISRDNSKNTLYLQMNSLRAEDTAVYYCARSLARTTAMDYWGEGTLVTVSSASTKGPSVFPLAPSSKSTSGGTAALGCLVKDYFPEPVTVSWNSGALTSGVHTFPAVLQSSGLYSLSSVVTVPSSSLGTQTYICNVNHKPSNTKVDKKVEPKSCDKTHTCPPCPAPDLLGGDSVFLFPPKPKDTLMISRTPEVTCVVVDVSHEDGEVKFNWYVDGVEVHNAKTKPREEQYNSTYRVVSVLTVLHQDWLNGKEYKCKVSNAALPRPIEKTISKAKGQPREPQVYTLPPSRDELTKNQVSLTCLVKGFYPSDIAVEWESNGQPENNYKTTPPVLDSDGSFFLYSKLTVDKSRWQQGNVFSCSVMHEALHNHYTQESLSLSP light: not shown
		2.9 fold vs IL6R-B3/IL6R-L	7.8 µM		IL6R-BP100/IL6R-L (antibody, human IgG1, kappa, IgG1 type) heavy: QVQLQESGPGLVKPSETLSLTCAVSGHSISHDHAWSWVRQPPGEGLEWIGFISYSGITNYNPSLQGRVTISRDNSKNTLYLQMNSLRAEDTAVYYCARSLARTTAMDYWGEGTLVTVSSASTKGPSVFPLAPSSKSTSGGTAALGCLVKDYFPEPVTVSWNSGALTSGVHTFPAVLQSSGLYSLSSVVTVPSSSLGTQTYICNVNHKPSNTKVDKKVEPKSCDKTHTCPPCPAPELLGGDSVFLFPPKPKDTLMISRTPEVTCVVVDVAHEDPEVKFNWYVDGVEVHNAKTKPREEQYNSTYRVVSVLTVLHQDWLNGKEYKCKVSNKALPAPIEKTISKAKGQPREPQVYTLPPSRDELTKNQVSLTCLVKGFYPSDIAVEWESNGQPENNYKTTPPVLDSDGSFFLYSKLTVDKSRWQQGNVFSCSVMHEALHNHYTQESLSLSP light: not shown
	1 µM				IL6R-BP210/IL6R-L (antibody, human IgG1, kappa, copies: 2 + 2) heavy: QVQLQESGPGLVKPSETLSLTCAVSGHSISHDHAWSWVRQPPGEGLEWIGFISYSGITNYNPSLQGRVTISRDNSKNTLYLQMNSLRAEDTAVYYCARSLARTTAMDYWGEGTLVTVSSASTKGPSVFPLAPSSKSTSGGTAALGCLVKDYFPEPVTVSWNSGALTSGVHTFPAVLQSSGLYSLSSVVTVPSSSLGTQTYICNVNHKPSNTKVDKKVEPKSCDKTHTCPPCPAPELLGDDSVFLFPPKPKDTLMISRTPEVTCVVVDVSDEDGEVKFNWYVDGVEVHNAKTKPREEQYNSTYRVVSVLTVLHQDWLNGKEYKCKVSNKALPRPIEKTISKAKGQPREPQVYTLPPSRDELTKNQVSLTCLVKGFYPSDIAVEWESNGQPENNYKTTPPVLDSDGSFFLYSKLTVDKSRWQQGNVFSCSVMHEALHNHYTQESLSLSP light: not shown
	1 µM				IL6R-BP188/IL6R-L (antibody, human IgG1, kappa, copies: 2 + 2) heavy: QVQLQESGPGLVKPSETLSLTCAVSGHSISHDHAWSWVRQPPGEGLEWIGFISYSGITNYNPSLQGRVTISRDNSKNTLYLQMNSLRAEDTAVYYCARSLARTTAMDYWGEGTLVTVSSASTKGPSVFPLAPSSKSTSGGTAALGCLVKDYFPEPVTVSWNSGALTSGVHTFPAVLQSSGLYSLSSVVTVPSSSLGTQTYICNVNHKPSNTKVDKKVEPKSCDKTHTCPPCPAPDLLGDDSVFLFPPKPKDTLMISRTPEVTCVVVDVSDEDGEVKFNWYVDGVEVHNAKTKPREEQYNSTYRVVSVLTVLHQDWLNGKEYKCKVSNKALPKPIEKTISKAKGQPREPQVYTLPPSRDELTKNQVSLTCLVKGFYPSDIAVEWESNGQPENNYKTTPPVLDSDGSFFLYSKLTVDKSRWQQGNVFSCSVMHEALHNHYTQESLSLSP light: not shown
		3.4 fold vs IL6R-B3/IL6R-L	8.4 µM	0.9 µM	IL6R-BP102/IL6R-L (antibody, human IgG1, kappa, IgG1 type) heavy: QVQLQESGPGLVKPSETLSLTCAVSGHSISHDHAWSWVRQPPGEGLEWIGFISYSGITNYNPSLQGRVTISRDNSKNTLYLQMNSLRAEDTAVYYCARSLARTTAMDYWGEGTLVTVSSASTKGPSVFPLAPSSKSTSGGTAALGCLVKDYFPEPVTVSWNSGALTSGVHTFPAVLQSSGLYSLSSVVTVPSSSLGTQTYICNVNHKPSNTKVDKKVEPKSCDKTHTCPPCPAPELLGGDSVFLFPPKPKDTLMISRTPEVTCVVVDVQHEDPEVKFNWYVDGVEVHNAKTKPREEQYNSTYRVVSVLTVLHQDWLNGKEYKCKVSNKALPAPIEKTISKAKGQPREPQVYTLPPSRDELTKNQVSLTCLVKGFYPSDIAVEWESNGQPENNYKTTPPVLDSDGSFFLYSKLTVDKSRWQQGNVFSCSVMHEALHNHYTQESLSLSP light: not shown
		2.8 fold vs IL6R-B3/IL6R-L	15 µM		IL6R-BP078/IL6R-L (antibody, human IgG1, kappa, IgG1 type) heavy: QVQLQESGPGLVKPSETLSLTCAVSGHSISHDHAWSWVRQPPGEGLEWIGFISYSGITNYNPSLQGRVTISRDNSKNTLYLQMNSLRAEDTAVYYCARSLARTTAMDYWGEGTLVTVSSASTKGPSVFPLAPSSKSTSGGTAALGCLVKDYFPEPVTVSWNSGALTSGVHTFPAVLQSSGLYSLSSVVTVPSSSLGTQTYICNVNHKPSNTKVDKKVEPKSCDKTHTCPPCPAPELLGGDSVFLFPPKPKDTLMISRTPEVTCVVVDVSHEDPEVKFNWYVDGVEVHNAKTKPREEQYNSTYRVVSVLTVLHQDWLNGKEYKCKVSNKALPMPIEKTISKAKGQPREPQVYTLPPSRDELTKNQVSLTCLVKGFYPSDIAVEWESNGQPENNYKTTPPVLDSDGSFFLYSKLTVDKSRWQQGNVFSCSVMHEALHNHYTQESLSLSP light: not shown
		2.9 fold vs IL6R-B3/IL6R-L	16 µM		IL6R-2B171/IL6R-L (antibody, human IgG1, kappa, IgG1 type) heavy: QVQLQESGPGLVKPSETLSLTCAVSGHSISHDHAWSWVRQPPGEGLEWIGFISYSGITNYNPSLQGRVTISRDNSKNTLYLQMNSLRAEDTAVYYCARSLARTTAMDYWGEGTLVTVSSASTKGPSVFPLAPSSKSTSGGTAALGCLVKDYFPEPVTVSWNSGALTSGVHTFPAVLQSSGLYSLSSVVTVPSSSLGTQTYICNVNHKPSNTKVDKKVEPKSCDKTHTCPPCPAPELLGGDSVFLFPPKPKDTLMISRTPEVTCVVVDVSHEDPEVKFNWYVDGVEVHNAKTKPREEQYNSTYRVVSVLTVLHQDWLNGKEYKCKLSNKALPAPIEKTISKAKGQPREPQVYTLPPSRDELTKNQVSLTCLVKGFYPSDIAVEWESNGQPENNYKTTPPVLDSDGSFFLYSKLTVDKSRWQQGNVFSCSVMHEALHNHYTQESLSLSP light: not shown
73 µM	4.1 µM				IL6R-BP211/IL6R-L (antibody, human IgG1, kappa, copies: 2 + 2) heavy: QVQLQESGPGLVKPSETLSLTCAVSGHSISHDHAWSWVRQPPGEGLEWIGFISYSGITNYNPSLQGRVTISRDNSKNTLYLQMNSLRAEDTAVYYCARSLARTTAMDYWGEGTLVTVSSASTKGPSVFPLAPSSKSTSGGTAALGCLVKDYFPEPVTVSWNSGALTSGVHTFPAVLQSSGLYSLSSVVTVPSSSLGTQTYICNVNHKPSNTKVDKKVEPKSCDKTHTCPPCPAPDLLGGDSVFLFPPKPKDTLMISRTPEVTCVVVDVSDEDGEVKFNWYVDGVEVHNAKTKPREEQYNSTYRVVSVLTVLHQDWLNGKEYKCKVSNAALPRPIEKTISKAKGQPREPQVYTLPPSRDELTKNQVSLTCLVKGFYPSDIAVEWESNGQPENNYKTTPPVLDSDGSFFLYSKLTVDKSRWQQGNVFSCSVMHEALHNHYTQESLSLSP light: not shown
33 µM	0.98 µM				IL6R-BP197/IL6R-L (antibody, human IgG1, kappa, copies: 2 + 2) heavy: QVQLQESGPGLVKPSETLSLTCAVSGHSISHDHAWSWVRQPPGEGLEWIGFISYSGITNYNPSLQGRVTISRDNSKNTLYLQMNSLRAEDTAVYYCARSLARTTAMDYWGEGTLVTVSSASTKGPSVFPLAPSSKSTSGGTAALGCLVKDYFPEPVTVSWNSGALTSGVHTFPAVLQSSGLYSLSSVVTVPSSSLGTQTYICNVNHKPSNTKVDKKVEPKSCDKTHTCPPCPAPDYLGDDSVFLFPPKPKDTLMISRTPEVTCVVVDVSDEDGEVKFNWYVDGVEVHNAKTKPREEQDNSTYRVVSVLTVLHQDWLNGKEYKCKVSNDALPKPIEKTISKAKGQPREPQVYTLPPSRDELTKNQVSLTCLVKGFYPSDIAVEWESNGQPENNYKTTPPVLDSDGSFFLYSKLTVDKSRWQQGNVFSCSVMHEALHNHYTQESLSLSP light: not shown
51 µM	3 µM				IL6R-BP196/IL6R-L (antibody, human IgG1, kappa, copies: 2 + 2) heavy: QVQLQESGPGLVKPSETLSLTCAVSGHSISHDHAWSWVRQPPGEGLEWIGFISYSGITNYNPSLQGRVTISRDNSKNTLYLQMNSLRAEDTAVYYCARSLARTTAMDYWGEGTLVTVSSASTKGPSVFPLAPSSKSTSGGTAALGCLVKDYFPEPVTVSWNSGALTSGVHTFPAVLQSSGLYSLSSVVTVPSSSLGTQTYICNVNHKPSNTKVDKKVEPKSCDKTHTCPPCPAPEYLGGDSVFLFPPKPKDTLMISRTPEVTCVVVDVSDEDGEVKFNWYVDGVEVHNAKTKPREEQYNSTYRVVSVLTVLHQDWLNGKEYKCKVSNAALPKPIEKTISKAKGQPREPQVYTLPPSRDELTKNQVSLTCLVKGFYPSDIAVEWESNGQPENNYKTTPPVLDSDGSFFLYSKLTVDKSRWQQGNVFSCSVMHEALHNHYTQESLSLSP light: not shown
